Reference: patent publication US20040258656, “High affinity TGFbeta nucleic acid ligands and inhibitors” (published 2004)
Positions count from the first letter of the chain named.

How the values were obtained:
Experiment in all cases: filter
[1] = target: T1, TGFβ2 (transforming growth factor beta 2) (Homo sapiens, UniProt P61812 SEQ:1-112); details: chain copies: 2 (inferred, homodimer)
T1 sequence: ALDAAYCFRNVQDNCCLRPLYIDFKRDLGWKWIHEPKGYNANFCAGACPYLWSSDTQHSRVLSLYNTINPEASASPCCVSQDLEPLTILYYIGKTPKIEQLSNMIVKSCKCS

[2] = target: T1, TGFβ2 (transforming growth factor beta …); details: chain copies: 2 (inferred, homodimer); remark: listed apart in the source
[3] = target: T1, TGFβ2 (transforming growth factor beta …); details: chain copies: 2 (homodimer, stated)

In the case of GGAGGUUAUUACAGAGUCUGUAUAGCUGUACUCCCC (ssRNA, 2'-F C and U) [21a-21(ML-94)], the binding signal [1] is reported as 0.5 x Kd of NX22284.

In the case of GGAGGUUAUUACAGAGUCUGUAUAGCUGUACUCC (ssRNA, 2'-F C and U) [21a-21(ML-95)], the binding signal [1] is reported as 1 x Kd of NX22284.

GGAGGUUAUUACAGAGUCUGUAUAGCUGUA (ssRNA, 2'-F C and U) [21a-21(ML-96)] was tested, and the binding signal [1] was 1000 x Kd of NX22284.

GGAGGUUAUUACAGAGUCUGUAUAGC (ssRNA, 2'-F C and U) [21a-21(ML-97)] was tested, and the binding signal [1] was 1000 x Kd of NX22284.

For GGAGGUUAUUAGAGUCUAUAGCUGUACUCC (ssRNA, 2'-F C and U) [21a-21(ML-101)], the binding signal [1] was 1000 x Kd of NX22284.

For GGAGGUUAUUAGAGUCUAUAGCCUCC (ssRNA, 2'-F C and U) [21a-21(ML-102)], the binding signal [1] was 1000 x Kd of NX22284.

In the case of GGAGGUUAUUACAGAGUCUGUAUAGCUGUAC (ssRNA, 2'-F C and U) [21a-21(ML-105)], the binding signal [1] is reported as 1000 x Kd of NX22284.

In the case of GGAGGUUAUUACAGAGUCUGUAUAGCGUACUCC (ssRNA, 2'-F C and U) [21a-21(ML-114)], the binding signal [1] is reported as 1000 x Kd of NX22284.

In the case of GGAGGUUAUUACAGAGUCUGUAUAGCUGUCUCC (ssRNA, 2'-F C and U) [21a-21(ML-115)], the binding signal [1] is reported as 1000 x Kd of NX22284.

GGAGGUUAUUACAGAGUCUGUAUAGCUACUCC (ssRNA, 2'-F C and U) [21a-21(ML-116)] was tested, and the binding signal [1] was 1000 x Kd of NX22284.

For GGAGGUUAUACAGAGUCUGUAUAGCUGUACUCC (ssRNA, 2'-F C and U) [21a-21(ML-118)], the binding signal [1] was 1000 x Kd of NX22284.

For GGAGGUUAUUACAGAUCUGUAUAGCUGUACUCC (ssRNA, 2'-F C and U) [21a-21(ML-120)], the binding signal [1] was 1000 x Kd of NX22284.

For GGAGGUUAUUACAAGUUGUAUAGCUGUACUCC (ssRNA, 2'-F C and U) [21a-21(ML-122)], the binding signal [1] was 1000 x Kd of NX22284.

In the case of GGAGGUUAUUACAGAGUUGUAUAGCUGUACUCC (ssRNA, 2'-F C and U) [21a-21(ML-128)], the binding signal [1] is reported as 1000 x Kd of NX22284.

GGGGUUAUUACAGAGUCUGUAUAGCUGUACCC (ssRNA, 2'-F C and U) [21a-21(ML-130)] was tested, and the binding signal [1] was 2 x Kd of NX22284.

GGAGGUUAUUACGAGUCUGUAUAGCGUACUCC (ssRNA, 2'-F C and U) [21a-21(ML-132)] was tested, and the binding signal [1] was 1000 x Kd of NX22284.

For GGAGAUAUUACAGAGUCUGUAUAGCUGUACUCC (ssRNA, 2'-F C and U) [21a-21(ML-134)], the binding signal [1] was 10 x Kd of NX22284.

GGGGUUAUUCAGAGUCUGUAUAGCUGACCC (ssRNA, 2'-F C and U) [21a-21(ML-136)] was tested, and the binding signal [1] was 10000 x Kd of NX22284.

With GGGGUUAUUAAGAGUCUGUAUAGCUUACCC (ssRNA, 2'-F C and U) [21a-21(ML-138)] the binding signal [1] was 10000 x Kd of NX22284.

For GGAGGUUAUUACAGAGUCUGUAUAGCUGUACUCCCCA (ssRNA, 2'-F C and U) [NX22285], the binding signal [1] was 2 x Kd of NX22284.

For GAGGUUAUUACAGAGUCUGUAUAGCUGUACUCC (ssRNA, 2'-F C and U; 3'-3' dT cap) [NX22301], the binding signal [1] was 1 x Kd of NX22284.

AGGUUAUUACAGAGUCUGUAUAGCUGUACUCC (ssRNA, 2'-F C and U; 3'-3' dT cap) [NX22302] was tested, and the binding signal [1] was 100 x Kd of NX22284.

With GGUUAUUACAGAGUCUGUAUAGCUGUACUCC (ssRNA, 2'-F C and U; 3'-3' dT cap) [NX22303] the binding signal [1] was > 100 x Kd of NX22284.

B1: biased clone 2 (ssRNA)
RNA: GGGAGGACGAUGCGGAGGCGUUAUUAGAGAGUCUGUAUAGCUCUAGCCCCAGACGACUCGCCGA
modifications: 2'-F C and U
With B1 the binding signal [2] was 0.6 x Kd of 21a-21.

B2: biased clone 4 (ssRNA)
RNA: GGGAGGACGAUGCGGGGAGGGUAUUACAGAGUAUGUAUAGCUGUACUCCCAGACGACUCGCCCGA
modifications: 2'-F C and U
B2 was tested, and the binding signal [2] was 1.4 x Kd of 21a-21.

B3: biased clone 7 (ssRNA)
RNA: B2 RNA with G17A, A18G, G21U, C27U, A33C, U36C, G43A, U47C
modifications: 2'-F C and U
B3 was tested, and the binding signal [2] was 0.3 x Kd of 21a-21.

B4: biased clone 9 (ssRNA)
RNA: B2 RNA with G16U, G20A, A28G, U42C, U47C
modifications: 2'-F C and U
For B4, the binding signal [2] was 0.3 x Kd of 21a-21.

B5: biased clone 10 (ssRNA)
RNA: B2 RNA with A18G, G19C, G20A, G21U, A26U, A33C, C46G, U47C
modifications: 2'-F C and U
With B5 the binding signal [2] was 0.3 x Kd of 21a-21.

B6: biased clone 11 (ssRNA)
RNA: B2 RNA with G17C, A18G, G20A, G21U, U25C, A45G, U47C, C48G
modifications: 2'-F C and U
B6 was tested, and the binding signal [2] was 0.4 x Kd of 21a-21.

B7: biased clone 13 (ssRNA)
RNA: B2 RNA with G16U, A18U, G20A, G21A, C27G, A33C, G43C, U47C
modifications: 2'-F C and U
For B7, the binding signal [2] was 0.2 x Kd of 21a-21.

B8: biased clone 14 (ssRNA)
RNA: B2 RNA with G16C, A18G, G20A, G21U, A28U, A33C, U42A, U47C
modifications: 2'-F C and U
For B8, the binding signal [2] was 0.4 x Kd of 21a-21.

B9: biased clone 15 (ssRNA)
RNA: B2 RNA with G17U, A18G, G20A, G21A, A28G, A33C, U42C
modifications: 2'-F C and U
With B9 the binding signal [2] was 0.4 x Kd of 21a-21.

B10: biased clone 17 (ssRNA)
RNA: GGGAGGACGAUGCGGGGGGACUAUUAGUGAGUCUGUAUAGCACUACCCCCAGACGACUCGCCCGA
modifications: 2'-F C and U
In the case of B10, the binding signal [2] is reported as 0.8 x Kd of 21a-21.

B11: biased clone 18 (ssRNA)
RNA: B2 RNA with G17U, A18G, G20A, G21U, A30C, A33C, G40U, U47C
modifications: 2'-F C and U
With B11 the binding signal [2] was 1 x Kd of 21a-21.

B12: biased clone 19 (ssRNA)
RNA: B2 RNA with G17C, G21U, A33C, C48G
modifications: 2'-F C and U
For B12, the binding signal [2] was 1 x Kd of 21a-21.

B13: biased clone 20 (ssRNA)
RNA: GGGAGGACGAUGCGGGGUAGAUAUCACUGAGUCUGUAUAGCAGUGUCCCCAGACGACUCGCCCGA
modifications: 2'-F C and U
For B13, the binding signal [2] was 5.7 x Kd of 21a-21.

B14: biased clone 21 (ssRNA)
RNA: B2 RNA with G16A, A18G, G20A, G21U, A33C, U47C
modifications: 2'-F C and U
For B14, the binding signal [2] was 0.7 x Kd of 21a-21.

B15: biased clone 22 (ssRNA)
RNA: B2 RNA with G17U, A18G, G20A, G21U, A33C, U47C
modifications: 2'-F C and U
With B15 the binding signal [2] was 1.1 x Kd of 21a-21.

B16: biased clone 25 (ssRNA)
RNA: B2 RNA with A18G, G19C, G21U, A33C, C46G, U47C
modifications: 2'-F C and U
For B16, the binding signal [2] was 1 x Kd of 21a-21.

B17: biased clone 26 (ssRNA)
RNA: B2 RNA with A18U, G21U, G29C, C41G, U47C
modifications: 2'-F C and U
For B17, the binding signal [2] was 3.1 x Kd of 21a-21.

B18: biased clone 28 (ssRNA)
RNA: B2 RNA with G16A, A18G, G20A, G21A, U47C
modifications: 2'-F C and U
With B18 the binding signal [2] was 1 x Kd of 21a-21.

B19: biased clone 29 (ssRNA)
RNA: B2 RNA with G20U, G21U, A30C, A33C, G40U, C46G, U47C
modifications: 2'-F C and U
For B19, the binding signal [2] was 1 x Kd of 21a-21.

B20: biased clone 30 (ssRNA)
RNA: B2 RNA with G16U, G21U, A33C
modifications: 2'-F C and U
For B20, the binding signal [2] was 2.4 x Kd of 21a-21.

B21: biased clone 34 (ssRNA)
RNA: B2 RNA with A18U, G21U, C27G, A33C, G43C, U47G
modifications: 2'-F C and U
In the case of B21, the binding signal [2] is reported as 1.7 x Kd of 21a-21.

B22: biased clone 35 (ssRNA)
RNA: B10 RNA with C21G, G27A, U28A, A42U, C43U
modifications: 2'-F C and U
With B22 the binding signal [2] was 0.8 x Kd of 21a-21.

B23: biased clone 36 (ssRNA)
RNA: B2 RNA with G21A, C27U, A33C, G43A, U47C
modifications: 2'-F C and U
In the case of B23, the binding signal [2] is reported as 1.9 x Kd of 21a-21.

B24: 8.2 (ssRNA)
RNA: GGGAGGACGAUGCGGAAGUAACGUUUAAGUAAAAUUCGUUCUCUCGGUAUUUGGCCAGACGACUCGCCCGA
modifications: 2'-F C and U; 2'-OH A and G
B24: binds [3].

B25: 8.3 (ssRNA)
RNA: B24 RNA with U26G, U48C
modifications: 2'-F C and U; 2'-OH A and G
B25: binds [3].

B26: 8.23 (ssRNA)
RNA: GGGAGGACGAUGCGGAGACAUCUUUGUCUCGAUUAGUCAUGUUCCUUACCUGCCCCAGACGACUCGCCCGA
modifications: 2'-F C and U; 2'-OH A and G
B26: no binding [3].

B27: 8.28 (ssRNA)
RNA: GGGAGGACGAUGCGGAUGAGACCUAAUCAUCGAUCCGCUAUCUAAAACCUCACCCCAGACGACUCGCCCGA
modifications: 2'-F C and U; 2'-OH A and G
B27: no binding [3].

B28: 8.35 (ssRNA)
RNA: GGGAGGACGAUGCGGAUCCUAUCCUCUGAAUAUCAUUAAAUCAUCUUCUCCGCCCCAGACGACUCGCCCGA
modifications: 2'-F C and U; 2'-OH A and G
B28: no binding [3].

B29: 8.40 (ssRNA)
RNA: GGGAGGACGAUGCGGCCCAUUAGUCCUCAUUAGUCCCCUGUGCCCCAGACGACUCGCCCGA
modifications: 2'-F C and U; 2'-OH A and G
B29: no binding [3].

B30: 8.9 (ssRNA)
RNA: B24 RNA with U26G
modifications: 2'-F C and U; 2'-OH A and G
B30: binds [3].

B31: 8.48 (ssRNA)
RNA: GGGAGGACGAUGCGGAAGUAACGUUGAAGUAAAAUUCGUUCUCUCGGUAUUGGCCAGACGACUCGCCCGA
modifications: 2'-F C and U; 2'-OH A and G
B31: binds [3].
